The values that follow come from patent publication US20210388110A1 (published 2021).

This assay deals with T1, soluble human GPC3 (human, UniProt P51654 25-563, limits assumed).
T1 construct: soluble human GPC3 as analyte; also called glypican 3
The assay is described as follows: SPR (Biacore), soluble human GPC3. A general note: In SPR one partner is held on a chip, and binding of the other changes the refractive index at the surface.

T1 sequence (P51654 other isoform, or with tags, fused parts or gaps limits assumed, form in doubt): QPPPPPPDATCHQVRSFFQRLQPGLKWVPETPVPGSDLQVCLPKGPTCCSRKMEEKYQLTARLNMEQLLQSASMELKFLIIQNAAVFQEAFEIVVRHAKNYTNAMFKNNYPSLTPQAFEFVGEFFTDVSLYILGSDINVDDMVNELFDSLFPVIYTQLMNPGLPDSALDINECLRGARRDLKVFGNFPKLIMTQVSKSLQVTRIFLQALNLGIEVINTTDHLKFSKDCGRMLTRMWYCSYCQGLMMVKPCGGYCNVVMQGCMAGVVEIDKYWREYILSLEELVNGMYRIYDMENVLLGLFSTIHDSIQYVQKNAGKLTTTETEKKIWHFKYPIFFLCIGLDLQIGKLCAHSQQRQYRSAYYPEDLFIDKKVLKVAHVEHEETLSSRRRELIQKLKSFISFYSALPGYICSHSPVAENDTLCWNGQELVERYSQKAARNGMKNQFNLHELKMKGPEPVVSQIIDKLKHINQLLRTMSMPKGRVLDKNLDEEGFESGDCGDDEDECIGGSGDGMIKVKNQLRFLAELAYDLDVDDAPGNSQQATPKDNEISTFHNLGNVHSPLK

B1: H0610-G1dh/none-Hi-Kn010G3/L0186-k0 (antibody, human IgG1, kappa)
heavy: not shown
chain: EPKSSDKTHTCPPCPAPELLGGPSVFLFPPKPKDTLMISRTPEVTCVVVDVSHEDPEVKFNWYVDGVEVHNAKTKPREEQYNSTYRVVSVLTVLHQDWLNGKEYKCKVSNKALPAPIEKTISKAKGQPREPQVCTLPPSRDELTKNQVSLWCLVKGFYPSDIAVEWESNGQPENNYKTTPPVLDSDGSFFLYSKLTVDKSRWQQGNVFSCSVMHEALHNRYTQKSLSLSP
light: DIVMTQSPLSLPVTPGEPASISCRSSQSLVHSNRNTYLHWYQQKPGQAPRLLIYKVSNRFSGVPDRFSGSGSGTDFTLKISRVEAEDVGVYYCGQGTQWPYTFGQGTKLEIKRTVAAPSVFIFPPSDEQLKSGTASVVCLLNNFYPREAKVQWKVDNALQSGNSQESVTEQDSKDSTYSLSSTLTLSKADYEKHKVYACEVTHQGLSSPVTKSFNRGEC
notes: single-arm (one Fab)
As a reminder, the Kd is the free concentration of one partner at which half of the binding sites on the other are occupied at equilibrium, for simple one-to-one binding. In turn, B1 came in with a Kd of 1.08 nM.

B2: H0610-G1dh/none-Hi-Kn010G3/L0201-k0 (antibody, human IgG1, kappa)
heavy: not shown
chain: EPKSSDKTHTCPPCPAPELLGGPSVFLFPPKPKDTLMISRTPEVTCVVVDVSHEDPEVKFNWYVDGVEVHNAKTKPREEQYNSTYRVVSVLTVLHQDWLNGKEYKCKVSNKALPAPIEKTISKAKGQPREPQVCTLPPSRDELTKNQVSLWCLVKGFYPSDIAVEWESNGQPENNYKTTPPVLDSDGSFFLYSKLTVDKSRWQQGNVFSCSVMHEALHNRYTQKSLSLSP
light: DIVMTQSPLSLPVTPGEPASISCRSSQPPVHSNRNTYLHWYQQKPGQAPRLLIYKVSNRFSGVPDRFSGSGSGTDFTLKISRVEAEDVGVYYCGQGTQVPYTFGQGTKLEIKRTVAAPSVFIFPPSDEQLKSGTASVVCLLNNFYPREAKVQWKVDNALQSGNSQESVTEQDSKDSTYSLSSTLTLSKADYEKHKVYACEVTHQGLSSPVTKSFNRGEC
notes: single-arm (one Fab)
Regarding B2, the Kd came out at 1.13 nM.

B3: H0610-G1dh/none-Hi-Kn010G3/L0202-k0 (antibody, human IgG1, kappa)
heavy: not shown
chain: EPKSSDKTHTCPPCPAPELLGGPSVFLFPPKPKDTLMISRTPEVTCVVVDVSHEDPEVKFNWYVDGVEVHNAKTKPREEQYNSTYRVVSVLTVLHQDWLNGKEYKCKVSNKALPAPIEKTISKAKGQPREPQVCTLPPSRDELTKNQVSLWCLVKGFYPSDIAVEWESNGQPENNYKTTPPVLDSDGSFFLYSKLTVDKSRWQQGNVFSCSVMHEALHNRYTQKSLSLSP
light: DIVMTQSPLSLPVTPGEPASISCRSSQSPVHSNRWTYLHWYQQKPGQAPRLLIYKVSNRFSGVPDRFSGSGSGTDFTLKISRVEAEDVGVYYCGQGTQVPYTFGQGTKLEIKRTVAAPSVFIFPPSDEQLKSGTASVVCLLNNFYPREAKVQWKVDNALQSGNSQESVTEQDSKDSTYSLSSTLTLSKADYEKHKVYACEVTHQGLSSPVTKSFNRGEC
notes: single-arm (one Fab)
In the case of B3, the Kd stood at 1.22 nM.

B4: H0610-G1dh/none-Hi-Kn010G3/L0200-k0 (antibody, human IgG1, kappa)
heavy: not shown
chain: EPKSSDKTHTCPPCPAPELLGGPSVFLFPPKPKDTLMISRTPEVTCVVVDVSHEDPEVKFNWYVDGVEVHNAKTKPREEQYNSTYRVVSVLTVLHQDWLNGKEYKCKVSNKALPAPIEKTISKAKGQPREPQVCTLPPSRDELTKNQVSLWCLVKGFYPSDIAVEWESNGQPENNYKTTPPVLDSDGSFFLYSKLTVDKSRWQQGNVFSCSVMHEALHNRYTQKSLSLSP
light: DIVMTQSPLSLPVTPGEPASISCRPSQSPVHSNRNTYLHWYQQKPGQAPRLLIYKVSNRFSGVPDRFSGSGSGTDFTLKISRVEAEDVGVYYCGQGTQVPYTFGQGTKLEIKRTVAAPSVFIFPPSDEQLKSGTASVVCLLNNFYPREAKVQWKVDNALQSGNSQESVTEQDSKDSTYSLSSTLTLSKADYEKHKVYACEVTHQGLSSPVTKSFNRGEC
notes: single-arm (one Fab)
The molecule B4 yielded a Kd of 1.04 nM.

B5: H0610-G1dh/none-Hi-Kn010G3/L0203-k0 (antibody, human IgG1, kappa)
heavy: not shown
chain: EPKSSDKTHTCPPCPAPELLGGPSVFLFPPKPKDTLMISRTPEVTCVVVDVSHEDPEVKFNWYVDGVEVHNAKTKPREEQYNSTYRVVSVLTVLHQDWLNGKEYKCKVSNKALPAPIEKTISKAKGQPREPQVCTLPPSRDELTKNQVSLWCLVKGFYPSDIAVEWESNGQPENNYKTTPPVLDSDGSFFLYSKLTVDKSRWQQGNVFSCSVMHEALHNRYTQKSLSLSP
light: DIVMTQSPLSLPVTPGEPASISCRSSQSPVHSNRNTYIHWYQQKPGQAPRLLIYKVSNRFSGVPDRFSGSGSGTDFTLKISRVEAEDVGVYYCGQGTQVPYTFGQGTKLEIKRTVAAPSVFIFPPSDEQLKSGTASVVCLLNNFYPREAKVQWKVDNALQSGNSQESVTEQDSKDSTYSLSSTLTLSKADYEKHKVYACEVTHQGLSSPVTKSFNRGEC
notes: single-arm (one Fab)
For the molecule B5, the Kd stood at 2.11 nM.
